Experimental data from FireProtDB (doi:10.1111/j.1432-1033.1995.tb20304.x).

Conditions: Hevea brasiliensis, Thermal, DSC, glycine 0.05 M, reversible: yes (~75%), whole UniProt chain shown

B1: Pro-hevein wild type, P02877 (protein)
chain: MNIFIVVLLCLTGVAIAEQCGRQAGGKLCPNNLCCSQWGWCGSTDEYCSPDHNCQSNCKDSGEGVGGGSASNVLATYHLYNSQDHGWDLNAASAYCSTWDANKPYSWRSKYGWTAFCGPVGAHGQSSCGKCLSVTNTGTGAKTTVRIVDQCSNGGLDLDVNVFRQLDTDGKGYERGHITVNYQFVDCGDSFNPLFSVMKSSVIN
Tm (pH 1.82): 73 °C | heat capacity change of unfolding (pH 1.82): 0.37 kcal/mol/K | unfolding enthalpy (calorimetric) (pH 1.82): 29 kcal/mol | unfolding enthalpy (van 't Hoff) (pH 1.82): 43.4 kcal/mol | Tm (pH 2.1): 74.2 °C | heat capacity change of unfolding (pH 2.1): 0.44 kcal/mol/K | unfolding enthalpy (calorimetric) (pH 2.1): 28.6 kcal/mol | unfolding enthalpy (van 't Hoff) (pH 2.1): 41.6 kcal/mol | Tm (pH 2.92): 77.8 °C | heat capacity change of unfolding (pH 2.92): 0.5 kcal/mol/K | unfolding enthalpy (calorimetric) (pH 2.92): 31 kcal/mol | unfolding enthalpy (van 't Hoff) (pH 2.92): 41.5 kcal/mol | Tm (pH 3.2): 83.6 °C | heat capacity change of unfolding (pH 3.2): 0.62 kcal/mol/K | unfolding enthalpy (calorimetric) (pH 3.2): 34 kcal/mol | unfolding enthalpy (van 't Hoff) (pH 3.2): 41.8 kcal/mol | Tm (pH 3.54): 84.5 °C | heat capacity change of unfolding (pH 3.54): 0.44 kcal/mol/K | unfolding enthalpy (calorimetric) (pH 3.54): 36.5 kcal/mol | unfolding enthalpy (van 't Hoff) (pH 3.54): 41.6 kcal/mol | Tm (pH 3.67): 90.1 °C | heat capacity change of unfolding (pH 3.67): 0.45 kcal/mol/K | unfolding enthalpy (calorimetric) (pH 3.67): 38 kcal/mol | unfolding enthalpy (van 't Hoff) (pH 3.67): 42.5 kcal/mol
